Measured values reported in patent publication US20240201179A1 (Harvard, published 2024).

Molecular target: T1, RBD from MERS-CoV (MERS-CoV, UniProt K9N5Q8 367-606)
T1 construct: domain: RBD
Assay: fluorescence response of the sensor (FIG. 12)

B1: VHH72 noK V104NBDxK (VHH72 noK V104K functionalized with NBDx-NHS at the V104K position) (VHH)
VHH: QVQLQESGGGLVQAGGSLRLSCAASGRTFSEYAMGWFRQAPGREREFVATISWSGGSTYYTDSVRGRFTISRDNARNTVYLQMNSLRPDDTAVYYCAAAGLGTKVSEWDYDYDYWGQGTQVTVSS
notes: also called nanoX; NanoX
binding result: no binding
